Experimental data from article PMC6218473, “Recognition of host Clr-b by the inhibitory NKR-P1B receptor provides a basis for missing-self recognition” (Nature Communications, 2018).

Columns and labels:
[1] = target: Clr-b residues 74-194, E. coli expressed and refolded (mouse) (UniProt Q91V08); assay: AUC; sedimentation velocity, Clr-b alone at higher concentrations (25–200 μM); 10 mM Tris-HCl pH 8.0, 0.15 M NaCl, 20 °C; monomer to dimer
[2] = target: Clr-b residues 74-194, E. coli expressed and refolded (mouse) (UniProt Q91V08); assay: crystal structure; Clr-b and NKR-P1B^B6 mixed 1:1, 5 mg/ml; 21% PEG 3350, 0.1 M Bis/Tris pH 5.9, 5% glycerol, 0.2 M ammonium sulfate, 20 °C; 2.9 Å
NKp65 (Homo sapiens) = NKp65 (Homo sapiens) (UniProt D3W0D1); conditions: cited from earlier work
Sequence of NKp65 (Homo sapiens) (D3W0D1 whole entry): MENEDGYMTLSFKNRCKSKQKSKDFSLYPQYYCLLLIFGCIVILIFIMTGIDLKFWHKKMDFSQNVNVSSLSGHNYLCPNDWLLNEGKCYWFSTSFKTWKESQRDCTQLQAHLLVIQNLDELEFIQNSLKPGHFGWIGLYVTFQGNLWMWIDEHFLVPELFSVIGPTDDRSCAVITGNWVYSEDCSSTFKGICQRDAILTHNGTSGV

[3] = target: extended Clr-b, C-terminally extended version terminating at Ser207, His-tagged (mouse) (UniProt Q91V08); assay: AUC; sedimentation velocity, 120 μM each of extended Clr-b and NKR-P1B constructs, alone and in combination; 10 mM Tris-HCl pH 8.0, 0.15 M NaCl, 20 °C
Sequence of extended Clr-b, C-terminally extended version terminating at Ser207, His-tagged (mouse) (Q91V08 74-207): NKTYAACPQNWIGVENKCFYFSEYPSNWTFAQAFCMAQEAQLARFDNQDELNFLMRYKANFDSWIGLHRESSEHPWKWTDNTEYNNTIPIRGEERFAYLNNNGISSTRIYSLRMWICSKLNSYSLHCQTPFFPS

[4] = target: T1, NKR-P1B (B6 allele) C-type lectin-like domain with C-terminal BirA tag and His tag, biotinylated monomer (mouse, UniProt Q99JB4 89-215, biotin on the BirA tag); assay: SPR
T1 chain: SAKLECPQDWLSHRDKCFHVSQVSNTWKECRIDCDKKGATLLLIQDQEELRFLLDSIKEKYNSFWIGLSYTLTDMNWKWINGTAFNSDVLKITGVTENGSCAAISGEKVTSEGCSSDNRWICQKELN

[5] = target: the molecule itself; assay: crystal structure; Clr-b and NKR-P1B^B6 mixed 1:1, 5 mg/ml; 21% PEG 3350, 0.1 M Bis/Tris pH 5.9, 5% glycerol, 0.2 M ammonium sulfate, 20 °C; 2.9 Å

In the case of “Clr-b residues 74-194, E. coli expressed and refolded (from UniProt Q91V08 74-194) (domain or fragment)”, the stoichiometry N [1] is reported as 2 and the stoichiometry N [2] is reported as 2.

In the case of KACL (from UniProt Q6UVW9), the Kd (NKp65 (Homo sapiens)) is listed as 0.0007 µM.

In the case of “extended NKR-P1B (B6 allele) containing the membrane proximal stalk, starting from Gln72, His-tagged (from UniProt Q99JB4 72-223) (domain or fragment)”, the fraction of total in the species of the complex [3] is reported as 6% and the stoichiometry N (NKR-P1B per Clr-b chain) [3] is reported as 0.5.

B1: m12, mouse cytomegalovirus-encoded decoy ligand (ligand)
chain: TNVLAAPKNTSCVKKFTVSERRPPPEPGKCMSLLGSTLVNKQAANKQVDKPVTILKIFRCPVEEYLCMNATWSGRLFVRTQDNREIIFGNISFTSTDSSPTTLTGISTLKPWPLSSDLWIHSGTGDIYMFSNASFSDPKCYITLCVLRKNAHIPVQRANFAFGVTDENLVTPTSTRTVDN
In the case of B1, the Kd [4] is reported as 21.6 µM.

B2: NKR-P1B (B6 allele) C-type lectin-like domain, His-tagged (domain or fragment, mouse)
chain: T1 chain
modifications: N-acetylglucosamine on Asn169 (seen in the structure)
notes: NKR-P1B, B6 (C57BL/6) allele of Klrb1b, mouse, C-type lectin-like domain; Construct for structural and AUC experiments; also called ectodomain of NKR-P1B^B6
With B2 the “stoichiometry N” value [5] was 2 and the stoichiometry N (NKR-P1B per Clr-b chain) [2] was 0.5.
